Consider 1 substance from patent publication US20250281608A1.

In general, EC50 refers to the concentration giving half of the maximal effect. Low values mean an effect from little substance, high ones a need for much substance.

For the assay, the target named is C1q. The experiment in a line: C1q binding assay, format not stated.

In turn, rituximab (antibody) gave an EC50 of 0.9 µg/mL.
